In patent US20030224036A1, “Hla class I a2 tumor associated antigen peptides and vaccine compositions” (priority 1999, published 2003) one finds IC50 data, which are given here for four molecules.

Broadly, the IC50 is the concentration that gives 50% inhibition. A lower IC50 goes with inhibition by little substance.

Common to all, as to conditions: remark: other sources report otherwise
Test [1] concerns the target HLA-A*6802 (human). Put plainly: competitive binding assay, purified HLA.
Test [2] addresses HLA-A*6802 (human). Put plainly: competitive inhibition assay, purified HLA.
For test [3], the target named is HLA-A*0206 (human). Put plainly: competitive binding assay, purified HLA.
In test [4] the target is HLA-A*0206 (human). Put plainly: competitive inhibition assay, purified HLA.
Test [5] concerns the target HLA-A*0201 (human). Put plainly: competitive binding assay, purified HLA.
Test [6] concerns the target HLA-A*0201 (human). Put plainly: competitive inhibition assay, purified HLA.

VVLGVVFGI [Her2/neu.665]: the IC50 in test [1] and in test [2] was 2000 nM each time. For YLSGANLNV [CEA.605V9], the IC50 in test [3] and in test [4] was 80 nM throughout. With YLQLVFGIEV [MAGE2.157], the IC50 in test [5] and in test [6] was 50 nM each time. Turning to VMAGVGSPYV [Her2/neu.773], the IC50 in test [6] amounted to 200 nM.
